Assay results from the DeepSol protein solubility set.

assay: soluble on expression in E. coli; label from the status in PepcDB or PDB records

| Sequence | soluble on expression in E. coli |
| --- | --- |
| MALLWQLARNAEGDDPTNLESALIGKPVPKFRLESLDNPGQFYQADVLTQGKPVLLNVWATWCPTCRAEHQYLNQLSAQGIRVVGMNYKDDRQKAISWLKELGNPYALSLFDGDGMLGLDLGVYGAPETFLIDGNGIIRYRHAGDLNPRVWEEEIKPLWEKYSKEAAQ | soluble |
| MALPGERFHVLAQLEHLQSKYTGTAMRHEPSRMDCESAPRHSRLSNVSSRNEHVYCRCGEREPSSNPLQSDKSHDSAVWTASREESS | not soluble |
| MALSAEGSSGGSRGGSPKAEAASVPSWPQILGRLTDNRDLARGQAAWAMDQIMTGNARPAQIAAFAVAMTMKAPTADEVGELAGVMLSHAHPLPADTVPDDAVDVVGTGGDGVNTVNLSTMAAIVVAAAGVPVVKHGNRAASSLSGGADTLEALGVRIDLGPDLVARSLAEVGIGFCFAPRFHPSYRHAAAVRREIGVPTVFNLLGPLTNPARPRAGLIGCAFADLAEVMAGVFAARRSSVLVVHGDDGLDELTTTTTSTIWRVAAGSVDKLTFDPAGFGFARAQLDQLAGGDAQANAAAVRAVLGGARGPVRDAVVLNAAGAIVAHAGLSSRAEWLPAWEEGLRRASAAIDTGAAEQLLARWVRFGRQILEHHHHHH | soluble |
| MALSEQSKDLSDPNFAAEAPNSEVHSSPGVSEGVPPSATLAEPQSPPLGPTAAPQAAPPPQAPNDEGDPKALQQAAEEGRAHQAPSAAQPGPAPPAPAQLVQKAHELMWYVLVKDQKKMIIWFPDMVKDVIGSYKKWCRSILRRTSLILARVFGLHLRLTSLHTMEFALVKALEPEELDRVALSNRMPMTGLLLMILSLIYVKGRGARESAVWNVLRILGLRPWKKHSTFGDVRKLITEEFVQMNYLKYQRVPYVEPPEYEFFWGSRASREITKMQIMEFLARVFKKDPQAWPSRYREALEEARALREANPTAHYPRSSVSEGHHHHHH | soluble |
| MALSILFLSIASLTLSSSLIIDHYFHLSFLRNPLKSQSGGGKMKPKVFITREIPEVGIKMLEDEFEVEVWGDEKEIPREILLKKVKEVDALVTMLSERIDKEVFENAPKLRIVANYAVGYDNIDIEEATKRGIYVTNTPDVLTDATADLAFALLLATARHVVKGDRFVRSGEWKKRGVAWHPKWFLGYDVYGKTIGIIGLGRIGQAIAKRAKGFNMRILYYSRTRKEEVERELNAEFKPLEDLLRESDFVVLAVPLTRETYHLINEERLKLMKKTAILINIARGKVVDTNALVKALKEGWIAGAGLDVFEEEPYYNEELFKLDNVVLTPHIGSASFGAREGMAELVAKNLIAFKRGEIPPTLVNREVIKIRKPGFE | soluble |
| MALSKLNHLYMAVVADHSKRPHHHGQLDGVEAVQLNNPTCGDVISLTVKFDEDKIEDIAFAGNGCTISTASSSMMTDAVIGKSKEEALALADIFSEMVQGQENPAQKELGEAELLAGVAKFPQRIKCSTLAWNALKEAIKRSANAQHLTDQNVKEGKNV | soluble |
| MALVVEDIVKNFGEGLSETKVLKGINFEVEQGEFVILNGASGSGKTTLLTILGGLLSQTSGTVLYNDAPLFDKQHRPSDLRLEDIGFIFQSSHLVPYLKVIEQLTLVGQEAGMTKQQSSTRAIQLLKNIGLEDRLNVYPHQLSGGEKQRVAIMRAFMNNPKIILADEPTASLDADRATKVVEMIRQQIKEQQMIGIMITHDRRLFEYADRVIELEDGKITD | not soluble |
| MAMDTIAFAYMGGKEYEWLFFEVYDRVRRFYRDVRLPINIVYAGKIILPPGTLIRVETASGFVNMYSFEAVVEALYGKLVEMRDDVNDDSITKIFGITTFPIGSRDRYFDIYKKYLGIQVNVGDYHVLALSIKPFFTENKYLFIERVFKGVLHEIGHLYGLSHCHEDCVMNPPKDIKDWDLRTPTYCNTCLRKLKNKEELMPKLQLLEHHHHHH | not soluble |
| MAMLAYQVSKSIEINKSQSEIIDYLKDFKNWPEWSPWIILEPSCELTYSDNQGHVGAGYQWNGQRIGTGAVVLESTQEHRLDMELHFFRPIKSHGKVTLIVTPSQDGCTVEWQMQSRVPWYLFFLKTMFKSMVEMDYDRGLKMLKSQLETGQILSQLSEIGTRHQDLIHYVGLQGSGTIPELGPIMKKQTQRLYELMQKESLPVSGELFCYYLSMDMKLGHFEFVTCLPVSEMVEVPNGFVFGTIPACETFVIEHKGDYQFLGNAWSLGMNLTRQNGIKVKSKPLGIERYLNNPNETPKAGLRTEVILFKKLEHHHHHH | soluble |
| MAMMAKHQAVKKIFDQIATKYDLIDTIISLGLDQHWRRVLVSSLGLREGMRCLDCGAGSGKVTELIYFRCGGCDVTALDITDSMFNPELKKYVKFVVSPAESLPFPDASFDRVSSAFLTRNLADIDRYFAEVYRVLRPGGVFVNMDIYNPTRPVISEFFSLYFYRFVPFFGNRATGSKNYTYLANTVKYFHRPSVISQKLADRGFSVEATDLFFGAVYLHRSVKPEGRGLEHHHHHH | not soluble |
| MAMPEKSSDVKPTEECGSFPEIIELNVGGQVYITRYPTLISIPGSRLWEMFSVKNPCSLIQDNKGRFFIDRDGFLFRYVLDYMRDMQVVLPDHFPECGRLHREAEYFKLPELAKMLAPKMNKLNSIGNDSCPIDLEELSPSIDTTFNFSSTNSIHISGPDNPMVLRAAPGSELKKAGFITIGYRGSYTLGRDSQADAKFRRVARIMVCGKISLAKEVFGDTLNESRDPDRPPERYTSRYYLKFTFLEQAFDKLADAGFHMVACNSTGTCTVTHDQTDDRIWTSYTEYVFYRE | soluble |
| MANFQATIHSRPLSPEFMTQARRPASTIQAVLTNLREKISLQSILPGARLTEEELVDNYSIPRAMAREVLAVLEDRGIVRRIPNKGAVVAHVDMQWVYHYYDAREALDGMMVRLAARQTRPEDWADLVEQFGEPFQKALETGDVDRLISLIETFRNRLQTAANNPVLSDLAERIHERIRVVRQRVVLLPGRAETMVADYRAVLAALARSDAEEAEQLMGILNRNNRAAIQKYERYVV | not soluble |
| MANHAKLVDQEIYRSPVDDFELNYQEYLNDDDDDKQEAPVAVSKAPKGKGSNHGLGCRMKGLFDGFGGTDLKTIMRHLRRRRPKSGQALTNFMLSGNMEKVVDQHVKDFVHHFGRINPENGRIMGALRGNDFFNFGGLHNNLGNTGKVYLDNLMKGKCGKKRKVHKFKPIVVEELDFGAPKPAVPATPKAPVAPVAPVIPAPAVTPQKPKVDEPTYADSVSDFGLDFETEREKCLRNKTLFEDPEFPATAASLYYRTPPRDRIIWKRPGEIIANPQLITQGESRFDVKQGALGDCWFLAALANITLYDALFYRIVPPNQSFTENYAGIFHFQFWHYGKWVDVVVDDRLPTVNNQLYYLHSADNTEFWSALVEKAYAKLHGGYENLDGGTTAEALEDFTGGLTEYFDLRKSEKAAVLAALVKGMEMGSLFGCSIDADANIKEAQLRNGLVCGHAYSITAIHSITYYGEDTTLLRLRNPWGNEKEWNGAWSDGSSEWSKIDEATKKQIDVQFARDGEFWMSFEDFFSNFTQMEVCNLTAEIFDEIAEMTGVNRATETVEEEHQWHEIMEDGEWSSKHSWRLQQQPIYLPQEPSILHFLHSTTILY | not soluble |
| MANLGETLKQLRKQRRWTQEQLAEQLNVSRSQISKWENGSLLPDVQSLEKLCQLFNISADFLLGGETRQRELLREVTDMYGTADVHETVLAALDYLLHNQEMSEAMYALAKLPDKKRKHVETMIMTIVKECSELI | not soluble |
| MANMLKIAMLSTGEEVLHGDIVDSNAAWLAREFYQHGFSLAKRATVGDSLPALVEELMMLSFNSDVVIVNGGLGPTSDDITAQAAAQAAEQPLVLNADWLSQLEAFFIGRGRAMPESNRKQAMLPANAEVIDNPIGTACGFKMQINDCWFYFTPGVPKEFYKMVSEQILPNLQRQFPSVQGQQCSRLYTFGTSESSISDKLDKMHLPEGYTLGYRSYLPFIEVKLFGPDQDQERRLSLLKIIHSHLEQYVVSIDEPMLTYLGHVMAEKGLSLALAEQATQGGLSSWLLSDPNVEALAGHSWILSHRVSSELAHQDPLAAAFALAGATKDKCGTQMALVTGALKEDHVSVALSTPNGEWGQTVKFVRRFSAQEQKEWIATLAADMLLRYLTGRSMFVGYSAVERVKEMHLPSSVLN | not soluble |
| MANNVTFWFDVSCPFCWITSRWIKEVEKVRDISVTWVPMSLSVLNDGRDELPQDYKDKMKANWGPARVFAAVATEQPDRVDALYTAMGTRIHNQGEGGKQGYAAYDAIIADALEDVGLPASYAAVANTDTWDNALAAFHATAMDAVGNDVGTPVVKLGDTAFFGPVLTRIPRGEEAGMLFDASFQLAAYPHFFEIKRTRTESPQFD | not soluble |
| MANQLSTQQVKRDITTDPTLLTGADIKKYFDPQNLLSEKQVGQALALCKGRNLNPFANEVYIVAYKNNSGTDFSLIVSKEAFMKRAERCEGYDGFEAGITVMRNGEMVEIEGSLKLPDDVLIGGWAIVYRKDRSHRYKVTVDFNEYVKLDKYGNPRSTWKSMPGTMIRKTALVQTLREAFPDELGNMYTDIDGGDTFDAIKDVTPQETQEEVRARKMAQIEQYKQEQTQKQTQKADTSYPVDEVSEHTDDPVQGELLDGELEY | not soluble |
| MANTPGGGALIVGIEDKTGRIIGTELDIDWLRQGIFTRIDVAPDVVAKRVLGQRVLAIYVAAAAEPIEDTSDRLRWRVGDSCRPVDLEHHHHHH | not soluble |
| MANVYDLANELERAVRALPEYQAVLTAKSAIESDADAQVLWQDFLATQSKVQEMMQSGQMPSQEEQDEMSKLGEKIESNDLLKVYFDQQQRLSVYMSDIEKIVFAPMQDLM | not soluble |
| MANYPKELPAQTQSRQPGIESEMNPSPVYEYEDYKGADKLKGKVALITGGDSGIGRAVSVAYAKEGADIAIVYKDEHEDAEETKKRVEQEGVKCLLIAGDVGEEEFCNEAVEKTVKELGGLDILVNNAGEQHPKESIKDITSEQLHRTFKTNFYSQFYLTKKAIDYLKPGSAIINTTSINPYVGNPTLIDYTATKGAINAFTRTMAQALVKDGIRVNAVAPGPIWTPLIPATFPEETVAQFGQDTPMGRPGQPVEHVGCYVLLASD | not soluble |
| MAPAKSPRAWQRMLSGRRLDLLDPSPLDVEIADIAHGLARVARWNGQTRGDHAFTVAQHCLIVETIFCRMCPGATPDEMQMALLHDAPEYVIGDMISPFKSVVGGGYKTVEKRLEAAVHLRFGLPPHASRELKDRIKKADTVAAFFEATELAGFSTAEAQKFFGLPRGITRDMFDIIPLPSTEAQRLFIARFEAIETLRVTRTGGAV | soluble |
| MAPEAQVSVQPNFQQDKFLGRWFSAGLASNSSWLREKKAALSMCKSVVAPATDGGLNLTSTFLRKNQCETRTMLLQPAGSLGSYSYRSPHWGSTYSVSVVETDYDQYALLYSQGSKGPGEDFRMATLYSRTQTPRAELKEKFTAFCKAQGFTEDTIVFLPQTDKCMTEQAHHHHHH | soluble |
| MAPLVAVVSSPRARLFACFLRLGTQQAGPLQLHTGACCTAKNHYEVLVLGGGAGGITMATRMKRRVGAENVAIVEPSERHFYQPIWTLVGAGAKELSLSVRSTLSVIPSGVQWIQDRVAELNPDENCIRTDSGKEISYRYLIIALGIQLDYEKIKGLPEGFAYPKIGSNYSVKTVEKTWKALQDFKEGNALFTFPNTPVKCAGAPQKIMYLSEAYFRKTGKRPKANIIFNTALGTIFGVKKYADALQEIIRERDVSVNYKHNLIEVRPDKQEAVFEILDKPGETHVIPYEMLHVTPPMSAPDVLKRSPVADSAGWVDVDKETLQHKKYPNVFGIGDCTNLPTSKTAAAVAAQSGILDRTMCLIMKNQRPIKKYDGYTSCPLVTGYNRVILAEFDYTAQPLETFPFDQSKERITMYLMKADMMPFLYWNMMLRGYWGGPAFLRKLFHLGMN | not soluble |
| MAPMFGVSFDFDPDFSLLSNKTHKSRNPKPPVKLLPYRHGSNTTSSDSDSYTSDLDLPTMRLHHQWLRSPSRSKMCCSTGSSSISQSIHRA | not soluble |
